Measured values as given in paper PMC10350915, “Development of a New Class of CXCR4-Targeting Radioligands Based on the Endogenous Antagonist EPI-X4 for Oncological Applications” (Journal of Medicinal Chemistry, 2023).
Like-named read-outs stand apart in the source and are kept apart here. Square brackets hold non-standard residues; d marks the D form. Side chains are listed from the residue outwards. Ends that are not written are not given here. Peptide text beside a SMILES is read from it. * marks the point of attachment. DOTA = O=C(O)CN1CCN(CC(=O)O)CCN(CC(=O)*)CCN(CC(=O)O)CC1; Palmitoyl = CCCCCCCCCCCCCCCC(=O)*

T1: C-X-C motif chemokine receptor 4 (CXCR4) on Jurkat cells (human (endogenous in Jurkat), UniProt P61073 1-352)
T1 chain: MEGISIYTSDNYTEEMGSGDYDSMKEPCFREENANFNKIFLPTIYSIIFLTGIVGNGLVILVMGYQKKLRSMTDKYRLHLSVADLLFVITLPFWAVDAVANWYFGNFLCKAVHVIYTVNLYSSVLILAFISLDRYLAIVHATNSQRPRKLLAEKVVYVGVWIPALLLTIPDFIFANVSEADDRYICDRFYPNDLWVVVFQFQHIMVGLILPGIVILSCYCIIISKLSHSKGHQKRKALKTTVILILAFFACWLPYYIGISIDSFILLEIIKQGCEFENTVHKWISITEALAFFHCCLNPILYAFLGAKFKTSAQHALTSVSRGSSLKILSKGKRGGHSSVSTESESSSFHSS


Experiments:
[1] = type: in vitro ADME; settings: human; for fraction unbound at 60 min: plasma, plasma protein binding (PPB); for plasma protein binding (PPB): 60 min
Protocol: (§1) Figure 3 Stability of the ^177Lu ligands in human plasma at 37 °C, expressed as % of intact radioligand over time, assessed by radio-HPLC. The % of plasma protein binding (PPB) after 60 min incubation is provided in parenthesis and it is expressed as the % of radioligand in the protein fraction (pellet) versus the total activity in the plasma. TEXT PRINTED IN THE PICTURE: ^177Lu-1: PPB: 35% | ^177Lu-2: PPB: 22% | ^177Lu-5: PPB: 42% | ^177Lu-6: PPB: 38% | ^177Lu-7: PPB: 39% | ^177Lu-9: PPB: 37%
For the determination of plasma protein binding (PPB), 100 μL from the plasma incubated with the ^177Lu ligand was removed and measured in a γ-counter (total radioactivity). Protein precipitation and separation followed, as described above. The supernatant and the protein pellet were then measured in a γ-counter. The percentage of plasma protein binding was calculated as the ratio between the protein-bound radioactivity and the total radioactivity in the plasma.

[2] = type: in vitro ADME, human
Protocol: Representative radiochromatograms are provided in Figure S25 for ^177Lu-1, ^177Lu-2, and ^177Lu-7. This included ^177Lu-9 despite its fatty acid chain.
as §1
To 1 mL of fresh human plasma, previously equilibrated at 37 °C, 500 pmol (8–10 MBq) of each ^177Lu-labeled ligand was added. The mixture was incubated at 37 °C for different time points (0, 15, 30, 60, and 120 min). At each time point, a 100 μL aliquot was removed and treated with 1.5 excess (v/v) of acetonitrile, to precipitate plasma proteins, followed by centrifugation for 5 min at 3500 rpm. The supernatant was collected and the process of protein precipitation was repeated. Afterward, 100 μL from the supernatant was taken, diluted with water at a ratio of 1:10 (v/v), and injected into radio-HPLC. The radioligand (in)stability was assessed by quantifying the percentage of intact radioligand over time.

[3] = target: T2, C-X-C motif chemokine receptor 4 (CXCR4) on Ghost-CXCR4 cells (UniProt P61073 1-352); test: flow cytometry on cells; competition with APC-labelled anti-CXCR4 antibody clone 12G5 at a fixed concentration close to its KD; Ghost-CXCR4 cells, 50,000 cells/well; ligands serially diluted in PBS; 4 °C, 2 h; PBS with 1% FBS; settings: one partner purified
T2 construct: CXCR4 stably expressed in Ghost cells (NIH HIV Reagent Program); source: Ghost cells (human osteosarcoma cell line) stably transfected with CXCR4, also expressing CD4; on cells

[4] = target: T3, C-X-C motif chemokine receptor 4 (CXCR4) on Jurkat cells (human (endogenous in Jurkat), UniProt P61073 1-352); test: flow cytometry on cells; competition with APC-labelled anti-CXCR4 antibody clone 12G5 at a fixed concentration close to its KD; Jurkat cells, 50,000 cells/well; ligands serially diluted in PBS; 4 °C, 2 h; PBS with 1% FBS; settings: one partner purified
T3 construct: CXCR4 naturally expressed at high levels on Jurkat cells (human T lymphoblasts); source: endogenous, on Jurkat cells (clone E6-1, ATCC)

[5] = target: T1, C-X-C motif chemokine receptor 4 …
[6] = target: T2, C-X-C motif chemokine receptor 4 …; test: radioligand binding; cellular uptake (surface-bound and internalised) of 177Lu ligands (1 nM) in Ghost-CXCR4 cells, 37 °C, 15-60 min, DMEM with 5% BSA; nonspecific uptake with 100,000-fold excess of AMD3100 subtracted; settings: one partner purified

Row | Molecule | fraction unbound at 60 min [1] | time to complete degradation in human plasma [2] | plasma protein binding (PPB) [1] | IC50 [3] | IC50 [4] | IC50 [5] | cellular uptake (% of applied activity) [6]
1 | CC[C@H](C)[C@H](N)C(=O)N[C@@H](CC(C)C)C(=O)N[C@@H](CCCNC(=N)N)C(=O)N[C@@H](Cc1c[nH]c2ccccc12)C(=O)N[C@@H](CO)C(=O)N[C@@H](CCCNC(=N)N)C(=O)N[C@@H](CCCCN)C(=O)N[C@@H](CC(C)C)C(=O)N1CCC[C@H]1C(=O)N[C@@H](CS)C(=O)N[C@H](C(=O)N[C@@H](CO)C(=O)N[C@@H](CCCCNC(=O)CN1CCN(CC(=O)O)CCN(CC(=O)O)CCN(CC(=O)O)CC1)C(=O)O)C(C)C [^177Lu-1, metal not drawn] | 0.65 | ≤ 15 min |  |  |  |  | 
2 | CC[C@H](C)[C@H](N)C(=O)N[C@@H](CC(C)C)C(=O)N[C@@H](CCCNC(=N)N)C(=O)N[C@@H](Cc1c[nH]c2ccccc12)C(=O)N[C@@H](CO)C(=O)N[C@@H](CCCNC(=N)N)C(=O)N[C@@H](CCCCNC(=O)CN1CCN(CC(=O)O)CCN(CC(=O)O)CCN(CC(=O)O)CC1)C(N)=O [^177Lu-5, metal not drawn] (H-ILRWSRK(DOTA)-NH2; N-terminus assumed) | 0.58 | ≤ 15 min | ~40% |  |  |  | 
3 | CC(C)C[C@@H](N)C(=O)N[C@@H](CC(C)C)C(=O)N[C@@H](CCCNC(=N)N)C(=O)N[C@@H](Cc1c[nH]c2ccccc12)C(=O)N[C@@H](CO)C(=O)N[C@@H](CCCNC(=N)N)C(=O)N[C@@H](CCCCN)C(=O)N[C@@H](CC(C)C)C(=O)N1CCC[C@H]1C(=O)N[C@@H](CS)C(=O)N[C@H](C(=O)N[C@@H](CO)C(=O)N[C@@H](CCCCNC(=O)CN1CCN(CC(=O)O)CCN(CC(=O)O)CCN(CC(=O)O)CC1)C(=O)O)C(C)C [^177Lu-6, metal not drawn] | 0.62 | ≤ 15 min | ~40% |  |  |  | 
4 | ILRWSRKLPCVSK(DOTA) (source: synthetic peptide (Fmoc solid phase synthesis, RP-HPLC purified)) [ligand-1] |  |  |  | 254 nM | 303 nM |  | 
5 | ILRWSRKLPSVSK(DOTA) (also: natLu complexed by DOTA, natLu and 177Lu complexes are written as one molecule; they differ only in the isotope; also called ^177Lu-2; Lu complex of ligand-2; source: synthetic peptide, complexed with natLuCl3; ^177Lu form labelled with 177LuCl3) [^natLu-2] |  |  |  |  | 49 nM | 65 nM | ~1 % of applied activity
6 | [dL]LRWSRKLPCVSK(DOTA) (also: DOTA complexed with natLu, natLu and 177Lu complexes are written as one molecule; they differ only in the isotope; also called ^177Lu-6; Lu complex of ligand-6 (monomer); source: synthetic peptide, complexed with natLuCl3, monomer isolated by semipreparative RP-HPLC; ^177Lu form labelled with 177LuCl3 in the presence of DTT) [^natLu-6] |  |  |  | 1010 nM | 465 nM |  | ~1 % of applied activity
7 | ILRWSRKLPSVSK(DOTA) (as ligand-1 with serine instead of cysteine at position 10; source: synthetic peptide (Fmoc solid phase synthesis, RP-HPLC purified)) [ligand-2] |  |  |  | 258 nM | 172 nM |  | 
8 | [dL]LRWSRKLPCVSK(DOTA) (as ligand-1 with isoleucine 1 substituted by D-leucine; source: synthetic peptide (Fmoc solid phase synthesis, RP-HPLC purified)) [ligand-6] |  |  |  | 747 nM | 428 nM |  | 
9 | ILRWSRKLPCVSK(DOTA) (also: natLu complexed by DOTA, natLu and 177Lu complexes are written as one molecule; they differ only in the isotope; also called ^177Lu-1; Lu complex of ligand-1 (monomer); source: synthetic peptide, complexed with natLuCl3, monomer isolated by semipreparative RP-HPLC; ^177Lu form labelled with 177LuCl3 in the presence of DTT) [^natLu-1] |  |  |  | 278 nM | 208 nM | 15 nM | ~1 % of applied activity
10 | [dI]LRWSRKK(DOTA)-NH2 (also: natLu complexed by DOTA, natLu and 177Lu complexes are written as one molecule; they differ only in the isotope; also called ^177Lu-7; Lu complex of ligand-7; source: synthetic peptide, complexed with natLuCl3; ^177Lu form labelled with 177LuCl3) [^natLu-7] |  |  |  | 481 nM | 435 nM | 272 nM | 
11 | ILRWSRK(DOTA)-NH2 (also: natLu complexed by DOTA, natLu and 177Lu complexes are written as one molecule; they differ only in the isotope; also called ^177Lu-5; Lu complex of ligand-5; source: synthetic peptide, complexed with natLuCl3; ^177Lu form labelled with 177LuCl3) [^natLu-5] |  |  |  | 197 nM | 113 nM | 104 nM | ~1 % of applied activity
12 | ILRWSRKK(DOTA)-NH2 (truncated JM#21 derivative with added C-terminal K(DOTA)-NH2; source: synthetic peptide (Fmoc solid phase synthesis, RP-HPLC purified)) [ligand-4] |  |  |  | 295 nM | 161 nM |  | 
13 | [dL]LRWSRK([Glu-Palmitoyl])K(DOTA)-NH2 (also: natLu complexed by DOTA, natLu and 177Lu complexes are written as one molecule; they differ only in the isotope; also called ^177Lu-9; Lu complex of ligand-9; source: synthetic peptide, complexed with natLuCl3; ^177Lu form labelled with 177LuCl3) [^natLu-9] |  |  |  | 6 nM | 4 nM | 20 nM | 
14 | [dL]LRWSRK([Glu-Palmitoyl])K(DOTA)-NH2 (main chain of 8 residues; source: synthetic peptide (Fmoc solid phase synthesis, RP-HPLC purified)) [ligand-9] |  |  |  | 6 nM | 13 nM |  | 
15 | LVRYTKKVPQVSTPTL (16-mer fragment of human serum albumin; also called wild-type EPI-X4; source: synthetic peptide) [EPI-X4 (endogenous peptide inhibitor of CXCR4)] |  |  |  | 4540 nM | 1780 nM |  | 
16 | ILRWSRKLPK(DOTA)-NH2 (N-terminus assumed; SMILES CC[C@H](C)[C@H](N)C(=O)N[C@@H](CC(C)C)C(=O)N[C@@H](CCCNC(=N)N)C(=O)N[C@@H](Cc1c[nH]c2ccccc12)C(=O)N[C@@H](CO)C(=O)N[C@@H](CCCNC(=N)N)C(=O)N[C@@H](CCCCN)C(=O)N[C@@H](CC(C)C)C(=O)N1CCC[C@H]1C(=O)N[C@@H](CCCCNC(=O)CN1CCN(CC(=O)O)CCN(CC(=O)O)CCN(CC(=O)O)CC1)C(N)=O, truncated JM#21 derivative with added C-terminal K(DOTA)-NH2; source: synthetic peptide (Fmoc solid phase synthesis, RP-HPLC purified)) [ligand-3] |  |  |  | 98 nM | 45 nM |  | 
17 | ILRWSRK(DOTA)-NH2 (N-terminus assumed; SMILES CC[C@H](C)[C@H](N)C(=O)N[C@@H](CC(C)C)C(=O)N[C@@H](CCCNC(=N)N)C(=O)N[C@@H](Cc1c[nH]c2ccccc12)C(=O)N[C@@H](CO)C(=O)N[C@@H](CCCNC(=N)N)C(=O)N[C@@H](CCCCNC(=O)CN1CCN(CC(=O)O)CCN(CC(=O)O)CCN(CC(=O)O)CC1)C(N)=O, shortest truncated JM#21 derivative; DOTA on its own K7; source: synthetic peptide (Fmoc solid phase synthesis, RP-HPLC purified)) [ligand-5] |  |  |  | 424 nM | 120 nM |  | 
18 | [dI]LRWSRKK(DOTA)-NH2 (N-terminus assumed; SMILES CC[C@@H](C)[C@@H](N)C(=O)N[C@@H](CC(C)C)C(=O)N[C@@H](CCCNC(=N)N)C(=O)N[C@@H](Cc1c[nH]c2ccccc12)C(=O)N[C@@H](CO)C(=O)N[C@@H](CCCNC(=N)N)C(=O)N[C@@H](CCCCN)C(=O)N[C@@H](CCCCNC(=O)CN1CCN(CC(=O)O)CCN(CC(=O)O)CCN(CC(=O)O)CC1)C(N)=O, as ligand-4 with isoleucine 1 substituted by D-isoleucine; also called DOTA conjugate of JM#173; source: synthetic peptide (Fmoc solid phase synthesis, RP-HPLC purified)) [ligand-7] |  |  |  | 570 nM | 433 nM |  | 
19 | ILRWSRKLPCVS (activity-optimised, truncated 12-mer derivative of EPI-X4 (rational design); source: synthetic peptide) [EPI-X4 JM#21] |  |  |  | 183 nM | 136 nM |  | 
20 | IVRWSKK(Palmitoyl)VPCSK(DOTA) (also: natLu complexed by DOTA) [^natLu-8] |  |  |  | 30 nM | 18 nM |  | 
